molecular target: T1, FcγRIIIa extracellular domain with C-terminal His tag (human, UniProt P08637 17-208); test: SPR, relative to GpH7-A5/GpH7-B3/GpL16-k0
T1 construct: extracellular domain; also called FcgRIIIa; 3a
T1 sequence (P08637 17-208): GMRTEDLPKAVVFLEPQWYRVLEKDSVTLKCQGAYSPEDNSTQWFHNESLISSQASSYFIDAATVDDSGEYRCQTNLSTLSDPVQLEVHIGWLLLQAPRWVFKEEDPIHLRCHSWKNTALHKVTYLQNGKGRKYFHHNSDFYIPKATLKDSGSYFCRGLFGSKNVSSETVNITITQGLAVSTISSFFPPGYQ

Binder	He/Con_3a
GpH7-A5/GpH7-B3 variant H268_10E/GpL16-k0 (antibody, human IgG1, kappa, heterodimerized IgG1, mutation in one H chain only; also called He Ab) heavy 1: not shown heavy 2: not shown light: DIVMTQSPLSLPVTPGEPASISCQASESLVHSNRNTYLHWYLQKPGQSPQLLIYKVSNRFSGVPDRFSGSGSGTDFTLKISRVEAEDVGVYYCSQNTHVPPTFGQGTKVEIERTVAAPSVFIFPPSDEQLKSGTASVVCLLNNFYPREAKVQWKVDNALQSGNSQESVTEQDSKDSTYSLSSTLTLSKADYEKHKVYACEVTHQGLSSPVTKSFNRGEC	186 % of control (=100)
GpH7-A5/GpH7-B3 variant I332_14T/GpL16-k0 (antibody, human IgG1, kappa, heterodimerized IgG1, mutation in one H chain only; also called He Ab) heavy 1: not shown heavy 2: not shown light: DIVMTQSPLSLPVTPGEPASISCQASESLVHSNRNTYLHWYLQKPGQSPQLLIYKVSNRFSGVPDRFSGSGSGTDFTLKISRVEAEDVGVYYCSQNTHVPPTFGQGTKVEIERTVAAPSVFIFPPSDEQLKSGTASVVCLLNNFYPREAKVQWKVDNALQSGNSQESVTEQDSKDSTYSLSSTLTLSKADYEKHKVYACEVTHQGLSSPVTKSFNRGEC	120 % of control (=100)
GpH7-A5/GpH7-B3 variant I336_10E/GpL16-k0 (antibody, human IgG1, kappa, heterodimerized IgG1, mutation in one H chain only; also called He Ab) heavy 1: not shown heavy 2: not shown light: DIVMTQSPLSLPVTPGEPASISCQASESLVHSNRNTYLHWYLQKPGQSPQLLIYKVSNRFSGVPDRFSGSGSGTDFTLKISRVEAEDVGVYYCSQNTHVPPTFGQGTKVEIERTVAAPSVFIFPPSDEQLKSGTASVVCLLNNFYPREAKVQWKVDNALQSGNSQESVTEQDSKDSTYSLSSTLTLSKADYEKHKVYACEVTHQGLSSPVTKSFNRGEC	119 % of control (=100)
GpH7-A5/GpH7-B3 variant I336_03V/GpL16-k0 (antibody, human IgG1, kappa, heterodimerized IgG1, mutation in one H chain only; also called He Ab) heavy 1: not shown heavy 2: not shown light: DIVMTQSPLSLPVTPGEPASISCQASESLVHSNRNTYLHWYLQKPGQSPQLLIYKVSNRFSGVPDRFSGSGSGTDFTLKISRVEAEDVGVYYCSQNTHVPPTFGQGTKVEIERTVAAPSVFIFPPSDEQLKSGTASVVCLLNNFYPREAKVQWKVDNALQSGNSQESVTEQDSKDSTYSLSSTLTLSKADYEKHKVYACEVTHQGLSSPVTKSFNRGEC	112 % of control (=100)
GpH7-A5/GpH7-B3 variant I332_19Q/GpL16-k0 (antibody, human IgG1, kappa, heterodimerized IgG1, mutation in one H chain only; also called He Ab) heavy 1: not shown heavy 2: not shown light: DIVMTQSPLSLPVTPGEPASISCQASESLVHSNRNTYLHWYLQKPGQSPQLLIYKVSNRFSGVPDRFSGSGSGTDFTLKISRVEAEDVGVYYCSQNTHVPPTFGQGTKVEIERTVAAPSVFIFPPSDEQLKSGTASVVCLLNNFYPREAKVQWKVDNALQSGNSQESVTEQDSKDSTYSLSSTLTLSKADYEKHKVYACEVTHQGLSSPVTKSFNRGEC	110 % of control (=100)
GpH7-A5/GpH7-B3 variant I336_13S/GpL16-k0 (antibody, human IgG1, kappa, heterodimerized IgG1, mutation in one H chain only; also called He Ab) heavy 1: not shown heavy 2: not shown light: DIVMTQSPLSLPVTPGEPASISCQASESLVHSNRNTYLHWYLQKPGQSPQLLIYKVSNRFSGVPDRFSGSGSGTDFTLKISRVEAEDVGVYYCSQNTHVPPTFGQGTKVEIERTVAAPSVFIFPPSDEQLKSGTASVVCLLNNFYPREAKVQWKVDNALQSGNSQESVTEQDSKDSTYSLSSTLTLSKADYEKHKVYACEVTHQGLSSPVTKSFNRGEC	102 % of control (=100)

Continued, values first:

He/Con_3a	Binder
115 % of control (=100)	GpH7-A5/GpH7-B3 variant K326_06M/GpL16-k0 (antibody, human IgG1, kappa, heterodimerized IgG1, mutation in one H chain only; also called He Ab) heavy 1: not shown heavy 2: not shown light: DIVMTQSPLSLPVTPGEPASISCQASESLVHSNRNTYLHWYLQKPGQSPQLLIYKVSNRFSGVPDRFSGSGSGTDFTLKISRVEAEDVGVYYCSQNTHVPPTFGQGTKVEIERTVAAPSVFIFPPSDEQLKSGTASVVCLLNNFYPREAKVQWKVDNALQSGNSQESVTEQDSKDSTYSLSSTLTLSKADYEKHKVYACEVTHQGLSSPVTKSFNRGEC
108 % of control (=100)	GpH7-A5/GpH7-B3 variant I336_14T/GpL16-k0 (antibody, human IgG1, kappa, heterodimerized IgG1, mutation in one H chain only; also called He Ab) heavy 1: not shown heavy 2: not shown light: DIVMTQSPLSLPVTPGEPASISCQASESLVHSNRNTYLHWYLQKPGQSPQLLIYKVSNRFSGVPDRFSGSGSGTDFTLKISRVEAEDVGVYYCSQNTHVPPTFGQGTKVEIERTVAAPSVFIFPPSDEQLKSGTASVVCLLNNFYPREAKVQWKVDNALQSGNSQESVTEQDSKDSTYSLSSTLTLSKADYEKHKVYACEVTHQGLSSPVTKSFNRGEC
103 % of control (=100)	GpH7-A5/GpH7-B3 variant K326_04F/GpL16-k0 (antibody, human IgG1, kappa, heterodimerized IgG1, mutation in one H chain only; also called He Ab) heavy 1: not shown heavy 2: not shown light: DIVMTQSPLSLPVTPGEPASISCQASESLVHSNRNTYLHWYLQKPGQSPQLLIYKVSNRFSGVPDRFSGSGSGTDFTLKISRVEAEDVGVYYCSQNTHVPPTFGQGTKVEIERTVAAPSVFIFPPSDEQLKSGTASVVCLLNNFYPREAKVQWKVDNALQSGNSQESVTEQDSKDSTYSLSSTLTLSKADYEKHKVYACEVTHQGLSSPVTKSFNRGEC
139 % of control (=100)	GpH7-A5/GpH7-B3 variant K326_07I/GpL16-k0 (antibody, human IgG1, kappa, heterodimerized IgG1, mutation in one H chain only; also called He Ab) heavy 1: not shown heavy 2: not shown light: DIVMTQSPLSLPVTPGEPASISCQASESLVHSNRNTYLHWYLQKPGQSPQLLIYKVSNRFSGVPDRFSGSGSGTDFTLKISRVEAEDVGVYYCSQNTHVPPTFGQGTKVEIERTVAAPSVFIFPPSDEQLKSGTASVVCLLNNFYPREAKVQWKVDNALQSGNSQESVTEQDSKDSTYSLSSTLTLSKADYEKHKVYACEVTHQGLSSPVTKSFNRGEC
233 % of control (=100)	GpH7-A5/GpH7-B3 variant I332_10E/GpL16-k0 (antibody, human IgG1, kappa, heterodimerized IgG1, mutation in one H chain only; also called He Ab) heavy 1: not shown heavy 2: not shown light: DIVMTQSPLSLPVTPGEPASISCQASESLVHSNRNTYLHWYLQKPGQSPQLLIYKVSNRFSGVPDRFSGSGSGTDFTLKISRVEAEDVGVYYCSQNTHVPPTFGQGTKVEIERTVAAPSVFIFPPSDEQLKSGTASVVCLLNNFYPREAKVQWKVDNALQSGNSQESVTEQDSKDSTYSLSSTLTLSKADYEKHKVYACEVTHQGLSSPVTKSFNRGEC
